Test results as given in paper PMC2965227.
Like-named read-outs stand apart in the source and are kept apart here.

B1: LEF1 P2 YY1-site mutant probe (ATG to CGT) (dsDNA)
DNA 1: AAAGCATCCAGCGTGAGGCCTCTAC
DNA 2: GTAGAGGCCTCACGCTGGATGCTTT
B2: LEF1 P2 wild-type probe (+13 to +37) (dsDNA)
DNA 1: AAAGCATCCAGATGGAGGCCTCTAC
DNA 2: GTAGAGGCCTCCATCTGGATGCTTT

Tests used:
YY1 (Yin Yang 1) [1] = biological target: T1, YY1 (Yin Yang 1) (human, UniProt P25490 1-414); test: EMSA
YY1 (Yin Yang 1) [2] = biological target: T1, YY1 (Yin Yang 1); test: EMSA; remark: listed apart in the source

T1 sequence (P25490 whole entry): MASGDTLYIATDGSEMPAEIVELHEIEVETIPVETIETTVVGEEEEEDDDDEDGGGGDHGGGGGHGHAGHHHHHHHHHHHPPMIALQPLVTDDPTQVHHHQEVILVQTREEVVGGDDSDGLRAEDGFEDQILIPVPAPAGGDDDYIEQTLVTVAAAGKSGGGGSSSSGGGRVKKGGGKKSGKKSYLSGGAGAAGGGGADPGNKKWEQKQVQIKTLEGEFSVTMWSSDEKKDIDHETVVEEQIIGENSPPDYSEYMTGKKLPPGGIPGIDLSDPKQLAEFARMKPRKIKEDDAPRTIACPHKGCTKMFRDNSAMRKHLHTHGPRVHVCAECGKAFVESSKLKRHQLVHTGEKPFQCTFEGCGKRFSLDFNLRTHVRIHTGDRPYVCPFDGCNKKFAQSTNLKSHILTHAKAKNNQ

Binder	binding result (YY1 (Yin Yang 1) [1])	binding result (YY1 (Yin Yang 1) [2])
B1	no binding	–
B2	–	binds
